{
  "source": "paper PMC2527485",
  "about": "(Journal of molecular biology, 2008)",
  "proteins": {"B1": {"name": "E,Z-farnesyl diphosphate synthase (Rv1086) (enzyme)", "chain": "MEIIPPRLKEPLYRLYELRLRQGLAASKSDLPRHIAVLCDGNRRWARSAGYDDVSYGYRMGAAKIAEMLRWCHEAGIELATVYLLSTENLQRDPDELAALIEIITDVVEEICAPANHWSVRTVGDLGLIGEEPARRLRGAVESTPEVASFHVNVAVGYGGRREIVDAVRALLSKELANGATAEELVDAVTVEGISENLYTSGQPDPDLVIRTSGEQRLSGFLLWQSAYSEMWFTEAHWPAFRHVDFLRALRDYSARHRSYGR"}},
  "molecular_target": "the molecule itself",
  "assay": "SEC + crystal structure",
  "data": [
    {"protein": "B1", "values": [
      {"measurement": "stoichiometry N", "result": 2}
    ]}
  ]
}
